The text below walks through data of PMC4116148 (Biochemistry, 2014).

Read-outs that look alike come from different tables or passages of the source. Non-standard residues stand in square brackets, D forms with d. fluorescein = fluorescein: fluorescein label on the Lys side chain; code γ = not defined here

The target of one assay is dynamin GTPase activity. Particulars: biochemical assay of dynamin GTPase activity; cited from earlier work.
Assay [1] has as its target T1, cNPF1 (head-to-tail cyclic).
T1 chain: YNPFEEGG
Nature of the assay: ITC. On the technique in general: In ITC the heat of successive injections is recorded.

Another assay addresses T2, cAPA (head-to-tail cyclic).
T2 chain: YAPAEEGG
The assay is described as follows: fluorescence polarization competition. In general terms: Fluorescence polarisation rises when a labelled molecule tumbles more slowly, as on binding a larger partner.

Assay [2] has as its target T1, cNPF1. The assay is described as follows: fluorescence polarization competition.
The target of a further assay is T3, cNPF1B (SMILES CC(=O)NCCCC[C@@H]1NC(=O)CNC(=O)[C@H](CCC(=O)O)NC(=O)[C@H](CCC(=O)O)NC(=O)[C@H](Cc2ccccc2)NC(=O)[C@@H]2CCCN2C(=O)[C@H](CC(N)=O)NC(=O)[C@H](Cc2ccc(O)cc2)NC1=O).
T3 chain: cyclo(YNPFEEGK(Ac))
The assay is described as follows: fluorescence polarization competition.

Assay [3] has as its target T4, cNPF3Flu.
T4 chain: cyclo(YNPFEEK(fluorescein))
Nature of the assay: fluorescence polarization.

Assay [4] addresses T5, cNPF2Flu (reading uncertain).
T5 chain: cyclo(YNPFEE[code γ]K(fluorescein))
The assay is described as follows: fluorescence polarization.

Assay [5] concerns the target T6, cNPF1Flu.
T6 chain: cyclo(YNPFEEGK(fluorescein))
Nature of the assay: fluorescence polarization.

Assay [6] addresses T7, cNPF6Flu.
T7 chain: cyclo(YNPFEQGK(fluorescein))
Nature of the assay: fluorescence polarization.

In assay [7] the target is T8, cNPF4Flu.
T8 chain: cyclo(YNPFAEGK(fluorescein))
The assay is described as follows: fluorescence polarization.

Assay [8] concerns the target T9, cNPF5Flu.
T9 chain: cyclo(YNPFEAGK(fluorescein))
Nature of the assay: fluorescence polarization.

For assay [9], the target named is T4, cNPF3Flu. Nature of the assay: fluorescence polarization.
The next assay addresses T10, cAPAFlu.
T10 chain: cyclo(YAPAEEGK(fluorescein))
Nature of the assay: fluorescence polarization.

Assay [10] addresses T5, cNPF2Flu. The assay is described as follows: fluorescence polarization.
In assay [11] the target is T6, cNPF1Flu. The assay is described as follows: fluorescence polarization.
The target in assay [12] is T7, cNPF6Flu. The assay is described as follows: fluorescence polarization.
The target in assay [13] is T8, cNPF4Flu. The assay is described as follows: fluorescence polarization.
The target of assay [14] is T9, cNPF5Flu. Nature of the assay: fluorescence polarization.

A word on the IC50: it is the concentration that gives 50% inhibition. In the case of `O=C(N/N=C/c1ccc(O)c(O)c1)c1cc2ccccc2cc1O` [dynasore], the IC50 at dynamin GTPase activity was approximately 15 µM.

B1: EHD1 EH domain EH (protein)
chain: VGKDKPTYDEIFYTLSPVNGKITGANAKKEMVKSKLPNTVLGKIWKLADVDKDGLLDDEEFALANHLIKVKLEGHELPADLPPHLVPPSKRRHE
The Kd is the concentration at which binding is half-saturated. A lower Kd goes with higher affinity. Take B1: the Kd was 9.9 µM in the assay with cNPF1 [1]; 57.8 µM with cNPF3Flu [3]; 20.5 µM with cNPF2Flu [4]; 16.8 µM with cNPF1Flu [5]; 34 µM with cNPF6Flu [6]; 46.7 µM with cNPF4Flu [7]. The Kd with cNPF5Flu [8] was 28.3 µM; with cNPF3Flu [9] it was 11.3 µM; in the assay with cAPAFlu it was more than 67 µM; in the assay with cNPF2Flu [10], 4.5 µM; with cNPF1Flu [11], 3.3 µM; with cNPF6Flu [12], 12.8 µM. The Kd with cNPF4Flu [13] was 17.4 µM; with cNPF5Flu [14] it was 8.7 µM. The values for the IC50 with cAPA, with cNPF1 [2] and with cNPF1B were more than 450 µM, 49.2 µM and 100 µM, respectively.
